B1: LATS1: 4A (protein)
parent chain: MKRSEKPEGYRQMRPKTFPASNYTVSSRQMLQEIRESLRNLSKPSDAAKAEHNMSKMSTEDPRQVRNPPKFGTHHKALQEIRNSLLPFANETNSSRSTSEVNPQMLQDLQAAGFDEDMVIQALQKTNNRSIEAAIEFISKMSYQDPRREQMAAAAARPINASMKPGNVQQSVNRKQSWKGSKESLVPQRHGPPLGESVAYHSESPNSQTDVGRPLSGSGISAFVQAHPSNGQRVNPPPPPQVRSVTPPPPPRGQTPPPRGTTPPPPSWEPNSQTKRYSGNMEYVISRISPVPPGAWQEGYPPPPLNTSPMNPPNQGQRGISSVPVGRQPIIMQSSSKFNFPSGRPGMQNGTGQTDFMIHQNVVPAGTVNRQPPPPYPLTAANGQSPSALQTGGSAAPSSYTNGSIPQSMMVPNRNSHNMELYNISVPGLQTNWPQSSSAPAQSSPSSGHEIPTWQPNIPVRSNSFNNPLGNRASHSANSQPSATTVTAITPAPIQQPVKSMRVLKPELQTALAPTHPSWIPQPIQTVQPSPFPEGTASNVTVMPPVAEAPNYQGPPPPYPKHLLHQNPSVPPYESISKPSKEDQPSLPKEDESEKSYENVDSGDKEKKQITTSPITVRKNKKDEERRESRIQSYSPQAFKFFMEQHVENVLKSHQQRLHRKKQLENEMMRVGLSQDAQDQMRKMLCQKESNYIRLKRAKMDKSMFVKIKTLGIGAFGEVCLARKVDTKALYATKTLRKKDVLLRNQVAHVKAERDILAEADNEWVVRLYYSFQDKDNLYFVMDYIPGGDMMSLLIRMGIFPESLARFYIAELTCAVESVHKMGFIHRDIKPDNILIDRDGHIKLTDFGLCTGFRWTHDSKYYQSGDHPRQDSMDFSNEWGDPSSCRCGDRLKPLERRAARQHQRCLAHSLVGTPNYIAPEVLLRTGYTQLCDWWSVGVILFEMLVGQPPFLAQTPLETQMKVINWQTSLHIPPQAKLSPEASDLIIKLCRGPEDRLGKNGADEIKAHPFFKTIDFSSDLRQQSASYIPKITHPTDTSNFDPVDPDKLWSDDNEEENVNDTLNGWYKNGKHPEHAFYEFTFRRFFDDNGYPYNYPKPIEYEYINSQGSEQQSDEDDQNTGSEIKNRDLVYV
B2: LATS1: LATS1-4A (protein)
parent chain: B1 parent chain

Key:
[1] = cycloheximide chase, degradation rate; details: glycan lost; control: LATS1-WT
[2] = HA-Ub co-transfection, MG-132, anti-MYC IP, blot; details: glycan lost; control: LATS1-WT
[3] = Nub-Gal4 overexpression, wing area; details: glycan lost; control: Nub > LATS1, standard medium
[4] = Nub-Gal4 overexpression, wing area, no-glucose medium; details: glycan lost; control: Nub > LATS1, glucose-free medium

| Protein | degradation_or_half_life [1] | other: ubiquitination [2] | other: Drosophila wing size [3] | other: Drosophila wing size [4] |
| --- | --- | --- | --- | --- |
| B1 | decreases | decreases | – | – |
| B2 | – | – | decreases | no change |

— paper PMC12797046
